Consider 2 substances from patent US6319692.

In the data set the test system is phiFSW integrase (Int) (Lactobacillus casei temperate phage phiFSW). The data set can be described thus: cell_activity.

Regarding attB (L. casei YIT9029), for the setting “chromosomal attB as integration site, attB lost and attL/attR formed in all analysed transformants, in vivo, no direct binding measured”, the activity (transformants/ug DNA) was 1000.

As for attP (phiFSW), the activity (transformants/ug DNA) (pMSK742 integration into YIT9029 chromosome via attP x attB, no transformants when int region deleted, attL and attR confirmed by PCR, Southern and sequencing) came to 1000.
